Test results from article PMC5147791 (PLoS Neglected Tropical Diseases, 2016).
Blank lines part the entries; values can stand above or below the molecule they belong to.

How the values were obtained:
[1] = biological target: Schistosoma mansoni 5'-deoxy-5'-methylthioadenosine phosphorylase, wild type (Schistosoma mansoni); experiment: crystal structure; hanging drop at 18°C, 100 mM Bis-tris or MES pH 6.1-6.7, 14-18% PEG 3350, protein 6 mg/mL; apo or with adenine, MTA, tubercidin, sulphate; one or two trimers in the asymmetric unit
[2] = biological target: T1, SmMTAP (Schistosoma mansoni, UniProt I0B503); experiment: X-ray crystal structure; assay type: binding
T1 construct: trimer; adult worm cDNA, corrected 3' end versus gene model Smp_028190
T1 sequence (I0B503 1-299): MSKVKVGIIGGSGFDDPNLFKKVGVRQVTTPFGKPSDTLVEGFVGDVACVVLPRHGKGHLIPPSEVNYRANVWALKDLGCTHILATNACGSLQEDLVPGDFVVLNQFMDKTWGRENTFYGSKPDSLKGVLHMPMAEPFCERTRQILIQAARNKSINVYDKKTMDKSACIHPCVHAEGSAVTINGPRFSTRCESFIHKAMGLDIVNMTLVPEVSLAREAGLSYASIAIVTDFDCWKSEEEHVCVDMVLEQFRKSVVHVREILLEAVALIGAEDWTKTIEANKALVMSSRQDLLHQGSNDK

[3] = biological target: SmMTAP S12T/N87T double mutant (Schistosoma mansoni); experiment: crystal structure
[4] = biological target: SmMTAP S12T mutant (Schistosoma mansoni); experiment: crystal structure
[5] = biological target: SmMTAP N87T mutant (Schistosoma mansoni); experiment: crystal structure
[6] = biological target: SmMTAP Q289L mutant (Schistosoma mansoni); experiment: crystal structure
[7] = substrate: Nc1ncnc2c1ncn2[C@H]1C[C@H](O)[C@@H](CO)O1; experiment: xanthine oxidase coupled assay, A305; assay type: biochemical, Schistosoma mansoni; conditions: 100 mM potassium phosphate pH 7.4, room temperature
Source text: (§1) xanthine oxidase coupled assay, A305 on SmMTAP

[8] = substrate: Nc1ncnc2c1ncn2[C@@H]1O[C@H](CO)[C@@H](O)[C@H]1O; experiment: xanthine oxidase coupled assay, A305; assay type: biochemical, Schistosoma mansoni; conditions: 100 mM potassium phosphate pH 7.4, room temperature
Source text: as §1

[9] = substrate: CSC[C@H]1O[C@@H](n2cnc3c(N)ncnc32)[C@H](O)[C@@H]1O; experiment: xanthine oxidase coupled assay, A305; assay type: biochemical, Schistosoma mansoni; conditions: 100 mM potassium phosphate pH 7.4, room temperature
Source text: as §1

[10] = substrate: O=P(O)(O)O; experiment: purified protein; conditions: 100 mM Hepes pH 7.4, room temperature, nucleoside co-substrate not stated

stoichiometry N [1]: 3
Molecule: Schistosoma mansoni 5'-deoxy-5'-methylthioadenosine phosphorylase, wild type (enzyme)

Molecule: Nc1ncnc2c1ccn2[C@@H]1O[C@H](CO)[C@@H](O)[C@H]1O [tubercidin]
X-ray crystal structure ([2]; active site, crystals grown with 5 mM ligand): In the MTAP tubercidin complex, all of the active sites are occupied

Molecule: SmMTAP S12T/N87T double mutant (enzyme)
stoichiometry N [3]: 3

Molecule: SmMTAP S12T mutant (enzyme)
stoichiometry N [4]: 3

Molecule: SmMTAP N87T mutant (enzyme)
stoichiometry N [5]: 3

Molecule: SmMTAP Q289L mutant (enzyme)
stoichiometry N [6]: 3

Molecule: Nc1ncnc2[nH]cnc12 [adenine]
X-ray crystal structure ([2]; base binding site, grown at pH 6.1-6.7, PEG 3350): the only WT structure whose BBS are all occupied is the orthorhombic SmMTAP adenine complex

B1: SmMTAP (Schistosoma mansoni) (protein)
chain: MSKVKVGIIGGSGFDDPNLFKKVGVRQVTTPFGKPSDTLVEGFVGDVACVVLPRHGKGHLIPPSEVNYRANVWALKDLGCTHILATNACGSLQEDLVPGDFVVLNQFMDKTWGRENTFYGSKPDSLKGVLHMPMAEPFCERTRQILIQAARNKSINVYDKKTMDKSACIHPCVHAEGSAVTINGPRFSTRCESFIHKAMGLDIVNMTLVPEVSLAREAGLSYASIAIVTDFDCWKSEEEHVCVDMVLEQFRKSVVHVREILLEAVALIGAEDWTKTIEANKALVMSSRQDLLHQGSNDK
notes: trimer; adult worm cDNA, corrected 3' end versus gene model Smp_028190
Km [7]: 3.97 ± 0.41 µM | Vmax [7]: 0.0841 µM/min | kcat [7]: 224 ± 11.3 s⁻¹ | kcat/Km [7]: 5.65e+07 ± 6.49e+06 M⁻¹ s⁻¹ | Km [8]: 3.14 ± 0.16 µM | Vmax [8]: 0.0501 µM/min | kcat [8]: 334 ± 6.84 s⁻¹ | kcat/Km [8]: 1.06e+08 ± 5.84e+06 M⁻¹ s⁻¹ | Km [9]: 3.63 ± 0.14 µM | Vmax [9]: 0.0666 µM/min | kcat [9]: 444 ± 5.72 s⁻¹ | kcat/Km [9]: 1.22e+08 ± 4.97e+06 M⁻¹ s⁻¹ | Km [10]: 65.58 ± 4.69 µM | Vmax [10]: 0.0358 µM/min | kcat [10]: 478 s⁻¹ | kcat/Km [10]: 7.28e+06 M⁻¹ s⁻¹
